The values that follow come from US20240336682A1 (SHENGHE CHINA BIOPHARMACEUTICAL, published 2024).

Experiment [1] has as its target T1, Human-NKP30-His (human, UniProt O14931 19-135).
T1 construct: also called NKP30 protein; not shown: His tag
T1 sequence (looked up): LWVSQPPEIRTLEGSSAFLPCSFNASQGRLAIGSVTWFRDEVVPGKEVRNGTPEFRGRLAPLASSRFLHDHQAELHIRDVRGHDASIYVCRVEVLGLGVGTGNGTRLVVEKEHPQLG
Nature of the experiment: ELISA, Human-NKP30-His coated at 0.5 ug/mL, HRP goat anti-human IgG-Fc. The procedure:
(§1) Human-NKP30-His was diluted to 0.5 μg/mL with PBS buffer at pH 7.4, added into the 96-well ELISA plate at 100 μL per well, coated overnight at 4° C., and blocked with 1% BSA blocking solution for 1 hour. The plate was washed 3 times with PBST, and the constructed antibodies were diluted to 10 μg/mL with 0.5% BSA sample diluent as the starting concentration, and then diluted by 3-fold gradient (11 gradients in total). A negative control (blank well and IgG1 isotype control) and a positive control were set, and the positive control was a NKP30 humanized antibody (sequence shown in SEQ ID No.32), and incubated at 37° C. for 1 h at 100 μL per well. […] The absorbance value of each well in the 96-well plate was determined by selecting the wavelength of 450 nm and the reference wavelength of 570 nm on a multifunctional enzyme marker, and the absorbance value (OD)=OD₄₅₀ₙₘ−OD₅₇₀ₙₘ. The logarithm of the concentration of the constructed antibodies were taken as the abscissa, and the measured absorbance value of each well was taken as the ordinate, and the Sigmoidaldose-response (Variable Slope) method (GraphPad Prism software, GraphPad Software, San Diego, California) was selected for nonlinear regression to obtain the binding curve of the target antibody to NKP30 protein.
In general terms: ELISA stands for enzyme-linked immunosorbent assay.

Experiment [2] concerns the target T1, Human-NKP30-His. Described as above. The procedure: as §1
The source holds these as a separate data set.

For experiment [3], the target named is T1, Human-NKP30-His. The experiment is described as above. The procedure:
as §1
This is another data set of the same source.

Experiment [4] has as its target T1, Human-NKP30-His. The experiment is described as above. The protocol: as §1
The source holds these as a separate data set.

Experiment [5] deals with T2, TGFβ1 (UniProt P01137 279-390, limits assumed).
T2 construct: also called TGFβ1 protein
T2 sequence (P01137 279-390 limits assumed): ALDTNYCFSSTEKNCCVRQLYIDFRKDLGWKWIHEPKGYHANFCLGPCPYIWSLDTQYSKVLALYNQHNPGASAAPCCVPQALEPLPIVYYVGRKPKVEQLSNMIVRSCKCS
Nature of the experiment: ELISA, TGFb1 coated at 1 ug/mL, HRP goat anti-human IgG-Fc. The procedure:
(§2) TGFβ1 was diluted to 1 μg/mL with PBS buffer at pH 7.4, added into the 96-well ELISA plate at 100 μL per well, coated overnight at 4° C., and blocked with 1% BSA blocking solution for 1 hour. The plate was washed 3 times with PBST, and the constructed expressing antibodies were diluted to 20 µg/mL with 0.5% BSA sample diluent as the starting concentration, and then diluted by 3-fold gradient (11 gradients in total). A negative control (blank well and IgG1 isotype control) and a positive control were set, and the positive control was TGF-βR2 (Acro, Cat: TG2-H5252), and incubated at 37° C. for 1 h at 100 μL per well. The plate was washed 3 times with PBST, and then HRP-labelled goat anti-human IgG-Fc was diluted with the sample diluent at 1:10000. […] The absorbance value of each well in the 96-well plate was determined by selecting the wavelength of 450 nm and the reference wavelength of 570 nm on a multifunctional enzyme marker, and the absorbance value (OD)=OD₄₅₀ₙₘ−OD₅₇₀ₙₘ. The logarithm of the concentration of the constructed antibodies were taken as the abscissa, and the measured absorbance value of each well was taken as the ordinate, and the Sigmoidaldose-response (Variable Slope) method (GraphPad Prism software, GraphPad Software, San Diego, California) was selected for nonlinear regression to obtain the binding curve of the target antibodies to the TGFβ1 protein.

Experiment [6] addresses T2, TGFβ1. The experiment is described as above. The protocol:
as §2
The source holds these as a separate data set.

Experiment [7] has as its target T2, TGFβ1. The experiment is described as above. The protocol: as §2
The source holds these as a separate data set.

Experiment [8] concerns the target T3, Human-CD24-His (human, UniProt P25063 27-59).
T3 construct: also called CD24 protein; not shown: His tag
T3 chain (looked up): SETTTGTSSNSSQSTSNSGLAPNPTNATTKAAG
Briefly: ELISA, Human-CD24-His coated at 1 ug/mL, HRP goat anti-human IgG-Fc. The procedure:
(§3) Human-CD24-His was diluted to 1 μg/mL with PBS buffer at pH 7.4, added into the 96-well ELISA plate at 100 μL per well, coated overnight at 4° C., and blocked with 1% BSA blocking solution for 1 hour. The plate was washed 3 times with PBST, and the constructed antibodies were diluted to 20 μg/mL with 0.5% BSA sample diluent as the starting concentration, and then diluted by 3-fold gradient (11 gradients in total) and incubated at 37° C. for 1 h at 100 μL per well. The plate was washed 3 times with PBST, and then HRP-labelled goat anti-human IgG-Fc (jackson Cat: 109-035-098) was diluted with the sample diluent at 1:10000. 100 μL was added into each well, and incubated at room temperature for 1 hour. […] The absorbance value of each well in the 96-well plate was determined by selecting the wavelength of 450 nm and the reference wavelength of 570 nm on a multifunctional enzyme marker, and the absorbance value (OD)=OD₄₅₀ₙₘ−OD₅₇₀ₙₘ. The logarithm of the concentration of the constructed antibodies were taken as the abscissa, and the measured absorbance value of each well was taken as the ordinate, and the Sigmoidaldose-response (Variable Slope) method (GraphPad Prism software, GraphPad Software, San Diego, California) was selected for nonlinear regression to obtain the binding curve of the target antibodies to the CD24 protein.

The target in experiment [9] is T3, Human-CD24-His. The experiment is described as above. The protocol:
as §3

Like-named read-outs stand apart in the source and are kept apart here.

B1: NKP30 humanized antibody (antibody, V domains shown)
VH: EVQLVESGGGLVQPGGSLRLSCAASGITFSRSVMGWFRQAPGKLRELVAGITSDDNTDYADSVKGRFTISRDNSKNTLYLQMNSLRAEDTAVYYCNILPDSRLGWGQGTLVTVSS
notes: It was detected with anti-human IgG-Fc
Turning to B1, the EC50 (read off the curve) – broadly, the concentration giving half of the maximal effect – with Human-NKP30-His [1] is ~0.03 mg/L; with Human-NKP30-His [2], ~0.03 mg/L; with Human-NKP30-His [3], ~0.02 mg/L; in the experiment with Human-NKP30-His [4] it was ~0.03 mg/L.

B2: TGF-βR2 (Acro, Cat: TG2-H5252) (receptor, UniProt P37173 23-159, looked up)
chain: TIPPHVQKSVNNDMIVTDNNGAVKFPQLCKFCDVRFSTCDNQKSCMSNCSITSICEKPQEVCVAVWRKNDENITLETVCHDPKLPYHDFILEDAASPKCIMKEKKKPGETFFMCSCSSDECNDNIIFSEEYNTSNPD
notes: Bought reagent
As to B2, the “EC50 (read off the curve)” value in the experiment with TGFβ1 [5] is ~0.03 mg/L; with TGFβ1 [6] it was ~0.03 mg/L; with TGFβ1 [7], ~0.04 mg/L.

B3: Positive control (antibody, human IgG1, kappa, V domains shown)
VH: QVQLVQSGSELKKPGASVKVSCKASGYIFTDYAIHWVRQAPGQGLEWMGFINTATGEPTYADDFKGRFVFSLDTSVSTAYLQISSLKAEDTAVYFCTSGVHWGQGTLVTVSS
VL: DIQMTQSPSTLSASVGDRVTITCSASSSVSSMHWYQQKPGKAPKLLIYSTSNLASGVPSRFSGSGSGTEYTLTISSLQPDDFATYYCHHWTSYMYTFGGGTKVEIKR
notes: The sheet only prints 'Positive control'; also called CD24 monoclonal antibody
Turning to B3, the “EC50 (read off the curve)” value in the experiment with Human-CD24-His [8] was ~0.006 mg/L; with Human-CD24-His [9], ~0.01 mg/L.
